# Assay: soluble on expression in E. coli; label from the status in PepcDB or PDB records
row,Sequence,soluble on expression in E. coli
1,MNELFLSELKSADKDLLQKLVLIEEHVFADSAQEPVQTEASLDSLELIISQCIAIISEIESPLEKAEALLNELYFQHLFIDRYQTRWPISAYSVAKGLNQRAMSPVVKAALVKEIITACGFETDLVFIPNKIMVRLCCDEQYAIIFDAITGESLDWTELDVRLDELDGDPGEQELKAIDDSVALVEHLSALKNVLIHEQAFDKALTCVDVILSLNPDDPLQRRDRGFLLHQLDCFKVAVDDYRYFVEQCPKDPAAKILKIQLEKIDVGNNVLHLEHHHHHH,soluble
2,MGSDKIHHHHHHMAENNTPQETEQDQEARFREEFEVGGKDRQLSEEEQLEQLGSYIDAHYPVPDFTPPWAGGAGDPDPADRYIAHLPDRTTHTAMIMLGSGLDHSMPGVAFIGGVSVDDVPEVGGAIFHPSNPTGRWAVSFHSGGWWRGSGDALEFQWRPEVAAAAELSGTTILDLDYPLAPGHNLHDMNEVVGKAVGYARHHNPVSITGWGYSSGAALAAINASLFDALVLTFPDLGSVEKLPAEIRGDAVVPAAAAWPTTFVQIAAQDEIAERPGELGDATVKEYVSRHRISTPKVAREKITDVAEFLKTVC,not soluble
3,MKAVAINGYGTVGKRVADAIAQQDDMKVIGVSKTRPDFEARMALKKGYDLYVAIPERVKLFEKAGIEVAGTVDDMLDEADIVIDCTPEGIGAKNLKMYKEKGIKAIFQGGEKHEDIGLSFNSLSNYEESYGKDYTRVVSCNTTGLCRTLKPLHDSFGIKKVRAVIVRRGADPAQVSKGPINAIIPNPPKLPSHHGPDVKTVLDINIDTMAVIVPTTLMHQHNVMVEVEETPTVDDIIDVFEDTPRVILISAEDGLTSTAEIMEYAKELGRSRNDLFEIPVWRESITVVDNEIYYMQAVHQESDIVPENVDAVRAILEMEEDKYKSINKTNKAMNILQ,soluble
4,MGSDKIHHHHHHMAHLSYSPPRNFDALYRQRVFQSHQAVRMHDAAARELADHSLTWRSGNVDAALYKARARRLTLFSFRYGAEVEIAPRPSEEFIVVHHSIRGAAELSVDGQHMVLPQGRTGWMAPRRNWRMRWEAGCEQLILKIPRDMIEAGGIAPMAPLATLPAGLDTQWLLLVQVLLGASSAPTCAGEPAAWVEHIEQGLASLLRAASSCSLPRESSDRNFVARDPIARLQAMEDYMRERLGAPIGLADLSGAAGVSARVLQQTCQRHRQMSPMELLRDMRLDAVHAWLSEHPSANITETALFYGFGHLGRFAAYYRQRFGESPHQTAQRRCCALS,not soluble
5,IVPDAQDLGKSYGIRPSFIIAQAALDSDFGEKILANKYHNLFGLLAEPGTPSITLNDSSTGKKQEKQFTHYKSWKYSMYDYLAHIKSGATGKKDSYTIMVSVKNPKTLVQKLQDSGFDNDKKYAKKMTEIIDLYDL,not soluble
6,MVDEDKKSGTRVFKKTSPNGKITTYLGKRDFIDRGDYVDLIDGMVLIDEEYIKDNRKVTAHLLAAFRYGREDLDVLGLTFRKDLISETFQVYPQTDKSISRPLSRLQERLKRKLGANAFPFWFEVAPKSASSVTLQPAPGDTGKPCGVDYELKTFVAVTDGSSGEKPKKSALSNTVRLAIRKLTYAPFESRPQPMVDVSKYFMMSSGLLHMEVSLDKEMYYHGESISVNVHIQNNSNKTVKKLKIYIIQVADICLFTTASYSCEVARIESNEGFPVGPGGTLSKVFAVCPLLSNNKDKRGLALDGQLKHEDTNLASSTILDSKTSKESLGIVVQYRVKVRAVLGPLNGELFAELPFTLTHSKPPESPERTDRGLPSIEATNGSEPVDIDLIQLHEELEPRYDDDLIFEDFARMRLHGNDSEDQPSPSANLPPSLL,not soluble
7,EDRVGERRIMIDKKEAIEHFRRHPGDGMIKLDLLTTAYNDINLIPPIYQPFLQDKQYFLGEVGQEPNTRMIYMSTFNQNGEEHPIILISLIDEIEITSTE,not soluble
8,GGVDSHSHIAGAKVNTGRTLRPEDSKKDLFSKEGLRQGSGFSIPSTFKTGYQYSGMGYTTVIEAAMPPLVARHTHEEFMDLPQIDKAAMPLFGNSWMVLEYLKNGDLSMCAAYVAWLLKVTKGYAIKIVNPGGTEAWGWGKNVHGLDDEVPYFGITPREIVTGLAKVNEMLGLPHSIHVHPNNLGHPGNWETTIDTMDCVKDIKAKPKFGDRDTVYYNTHLQFHSYGGTSWKDCVSKGVETADYVNKNKHVMIDVGQVTLDETTTMTADGPMEYDLHMTNGLKWANCDVELETGSGVVPFIYSPKGPVYSLQWAIGLDIFLYTQPEKLILTTDHPNAGPFVRYPRVIAWLLSKEYRNDWIQNRVHKWAAEKSHITETDREYSMYEIAQITRANSSKVLGLSGDRGHLGAGAKADISIYDIDPEEKSGKKIEKAFLEAAYVLKDGEIVVKNG,not soluble
9,QDFAELQGKWYTIVIAADNLEKIEEGGPLRFYFRHIDCYKNCSEMEITFYVITNNQCSKTTVIGYLKGNGTYETQFEGNNIFQPLYITSDKIFFTNKNMDRAGQETNMIVVAGKGNALTPEENEILVQFAHEKKIPVENILNILATDTCPE,soluble
10,MTDFSRTFSGTPSAVLPTANRFFRPPLPSAHVARPRLCRRLRDGLDGRLLLIAAPAGFGKSSLAIEFCESLDPRWQSLWLGLSSRESDPGRFLERLLDGLRQYHPTLGEEALGLLKMRQRHQPFAFETWLDDLLDELAPCLDPQRPLLLVLDDYHLAQGAVLDRCLQFLLNHLPEGLVLLVTSRQRPDWHLARLRLSRQLLELSEQDLRLTAEESGALMAASGLELDEDALDALLERSEGWVAGLRLWLLARGDPEEQVSPGVHGADELIRDYLLEEVIERQPPEVQAFLAQTARFERFCAELCDTVREAGDSAAILDHLQQHQVFLVPLDENGQWFRYHHLFSDLLLARPLPDFGPSAGSLHLRACGWFSRHGLLDQAVEQALRAGQPDVAASLVQNLSEEQLLAEQNIATLLRWKMDLPDSLLASTPRLILLYGWALALACQLDAAEELAGQLARFLPAPDESAQRDLLAQWQALSGVIARGRGDIDKAEAHCREALQDLAGERYGTRLQCLSTLSNLAVTRGDFWQA,not soluble
11,MPCRGLHSIPAGPVEFPEIATVYVMCGEKLTVMIDAGVSNSIADFSFLDKLDYIVLTHLHIDHIGLLPELLQVYKAKVLVKSGFKKYLTSEDGLKKLNESAEKVLGDLYYVYGGLEKKLDQDKVIEVEGNEEFDLGGYRMRLIYTPGHARHHMSVLVDDFLFTGDSAGAYFNGVVIPTTPPVIDYKMYMESLKRQIELKPKVVGFAHGGLVSPKIMEEHLKQMLSKEEIQINVDIGGVAGEILRKQIEVNLRGLRESKKSI,soluble
12,MGSDKIHHHHHHMTKILIVLSEWGYWGEELVGPLETFDAAGYQVDFATPNGKRPVALGVSMDPTFVDPPLGRPVTTQDMADKVRQLDDTNNPRLNNPKNLREWLPERPYWSSPKFLREMEEYYRLLDEVRQRDLQTYDAILIVGGSGPMVDLADNQRVHDLILSFYQMGKPVAAECYGVACLAFARDIGDRKSIIWGKHVTGHCLEYDYKDGTGFNGTNIDPCLNNINFGTPFYPLEYILRDATGPDGQYHGNVGRPTSVIVDYPFITGRSTPDSYLTGQKLVEVLEKGLKRYGW,not soluble
13,MSATETKYVPRLYKKYKEEVVPILQKKFNYKSPMQIPRLQKIVVNMGVGEAVQDIRQLERAVEDLRAITGQQPVITRARKSEAGFKLRKGMPIGCKVTLRKERMWDFLDKLISVALPRVKDFKGLSPRSFDGRGNYAFGIAEQIVFPEIDYDKVDRIRGMDIIINTTAETDEEAFWLLSLLGLPIRSM,soluble
14,MGSQAAHMMSMDFEDFPVESAHRILTPRPTVMVTTVDEEGNINAAPFSFTMPVSIDPPVVAFASAPDHHTARNIESTHEFVINITPADIIERMWVTARDIPAGENELEAAGLAWTSSRRVKPPRIVEAPGHLECELLRMFEVGDHNLITGSVVSASVRSGAVKEGLLDVESVKPVLHVGGNKFVVGD,not soluble
15,MAPKAEKKPSEKAPKADKKITKEGGSERKKKTKKSTETYKIYLFKVLKQVHPDIGISGKAMGIMNSFINDTFEKIALESSRLARYNKKPTITSREIQTAVRLVLPGELAKHAVSEGTKAVTKFTSS,not soluble
16,KNVWIFAEQREGKIAPVVIELLGEGRKLAKEVDAELCAILLGKDVDGLAKELITFGADKVYVADDALLEKYTTDAYTKVIKDAIDEIKPEIMLFGATHIGRDLAPRIASRVGTGLTADCTKLEIDPEDKKIKQTRPAFGGNIMATIICPNHRPQMSTVRPGVMDKAEKDETRTGEVIALDYKITQDDIRTTVLETV,not soluble

# Reference: the DeepSol protein solubility set
